Data on three molecules can be found in publication PMC2929978 (Science (New York, N.Y.), 2010).

As a reminder, the stoichiometry N is the number of molecules, sites or subunits per partner or assembly.

Holding throughout (assay): crystal structure
Series [1] concerns the target fiber protein derived from HAdV-35 (fiber of Ad35F) (human adenovirus 35 (HAdV-35)).
For series [2], the target named is hexon (major capsid protein) of the HAdV-5 vector Ad35F (human adenovirus 5 (HAdV-5), UniProt P04133 1-952).
The series “crystal structure” deals with the molecule itself.

“fiber protein derived from HAdV-35 (fiber of Ad35F) (natural protein)” came in with a stoichiometry N in series [1] of 3.

B1: protein IX of the HAdV-5 vector Ad35F (natural protein)
chain: MSTNSFDGSIVSSYLTTRMPPWAGVRQNVMGSSIDGRPVLPANSTTLTYETVSGTPLETAASAAASAAAATARGIVTDFAFLSPLASSAASRSSARDDKLTALLAQLDSLTRELNVVSQQLLDLRQQVSALKASSPPNAV
Consider B1, for which, in series [2], the binding result is listed as “binds”.

B2: penton base (PB) of the HAdV-5 vector Ad35F (natural protein)
chain: MRRAAMYEEGPPPSYESVVSAAPVAAALGSPFDAPLDPPFVPPRYLRPTGGRNSIRYSELAPLFDTTRVYLVDNKSTDVASLNYQNDHSNFLTTVIQNNDYSPGEASTQTINLDDRSHWGGDLKTILHTNMPNVNEFMFTNKFKARVMVSRLPTKDNQVELKYEWVEFTLPEGNYSETMTIDLMNNAIVEHYLKVGRQNGVLESDIGVKFDTRNFRLGFDPVTGLVMPGVYTNEAFHPDIILLPGCGVDFTHSRLSNLLGIRKRQPFQEGFRITYDDLEGGNIPALLDVDAYQASLKDDTEQGGGGAGGSNSSGSGAEENSNAAAAAMQPVEDMNDHAIRGDTFATRAEEKRAEAEAAAEAAAPAAQPEVEKPQKKPVIKPLTEDSKKRSYNLISNDSTFTQYRSWYLAYNYGDPQTGIRSWTLLCTPDVTCGSEQVYWSLPDMMQDPVTFRSTRQISNFPVVGAELLPVHSKSFYNDQAVYSQLIRQFTSLTHVFNRFPENQILARPPAPTITTVSENVPALTDHGTLPLRNSIGGVQRVTITDARRRTCPYVYKALGIVSPRVLSSRTF
Turning to B2, the “stoichiometry N” value in the series “crystal structure” is 5.
